# Reference: the DeepSol protein solubility set
# Assay: soluble on expression in E. coli; label from the status in PepcDB or PDB records
row,Sequence,soluble on expression in E. coli
1,MGSVSKANVPKIDVSPLFGDDQAAKMRVAQQIDAASRDTGFFYAVNHGINVQRLSQKTKEFHMSITPEEKWDLAIRAYNKEHQDQVRAGYYLSIPGKKAVESFCYLNPNFTPDHPRIQAKTPTHEVNVWPDETKHPGFQDFAEQYYWDVFGLSSALLKGYALALGKEENFFARHFKPDDTLASVVLIRYPYLDPYPEAAIKTAADGTKLSFEWHEDVSLITVLYQSNVQNLQVETAAGYQDIEADDTGYLINCGSYMAHLTNNYYKAPIHRVKWVNAERQSLPFFVNLGYDSVIDPFDPREPNGKSDREPLSYGDYLQNGLVSLINKNGQT,soluble
2,PYAKGNFKAYEQELIGRFKHGESIHSDSIRFPDSLRYKTLVTGRTVYGGGGIMPDLFIPTDTALFNKLHRELLNKGIFNRAVLKYVDAHRQKLRQRFPDRQSYATFSIPEELTESLKAFAEAEKITWSTELFAQAEELIKCQLHAYIARDILGENDFFYFFNRMDKEYIKALDLLNDPDEYKRLLGK,not soluble
3,MKYKILLKGKQYFATINLFDGRIAMDVQVQFMAELSQLIDKLSFLSRDQLKIALKGYKPAEVHTIEFIGEHSETNVTAIASALYVTRGAVSKITKRLISRGLIVRYQKPDNQKEVYFKLTAQGQEVFEIHKKFTNYFMQRDEPIFRDSPDAVATTLAFLHQYNAFLDQKLTIKK,not soluble
4,MRLERTFDPNDLSTQNMESPICLPIGFVHFLAQSQTLQQVLDTVAEWINRIFESDRTSITLYENSDYLKVYSFSGNKAIPADFLVPIDQAFVGRVFKNQQLIICDDVSQSDELDCVMLTSSGMGTCMDAPLMHGQMCLGTLNVAHHQTHFYTKEQAAQLQCIANWIALNI,not soluble
5,MGSDKIHHHHHHMMGGKTLVLLDERLISLSMTDNRGFDADQVTLSVDDADGLLQLPPRGADLSVSIGWKGEALVYKGVFIVDEVAHSGPPDTLEVTARSADFRDEFNVKREISWHDLTVERVVSAIAHRYKLKPVISAQLMDLEIDHADQTQESDMSFLTRMAEMLGAIATVKNGCLLFILPGGGVSASGKPLPAAEITRSSGDRHSFRIADRDAYTGVRAYWLDLNFGKKKKVSVKRRKAKPKKEKSSSREGDYMEGEDGNVYVLRKTYQNETAAKRAAAAKWQQLQRGAAQFSITLARGRADLYPEVHVSVSGFKADIDNQEWIISRVEHVIDGSGFTSRLELEAKIADWIAESD,not soluble
6,MQVHVIRRENRALYAGLLEKYFRIRHQIYVVERGWKELDRPDGREIDQFDTEDAVYLLGVDNDDIVAGMRMVPTTSPTLLSDVFPQLALAGPVRRPDAYELSRIFVVPRKRGEHGGPRAEAVIQAAAMEYGLSIGLSAFTIVLETWWLPRLVDQGWKAKPLGLPQDINGFSTTAVIVDVDDDAWVGICNRRSVPGPTLEWRGLEAIRRHSLPEFQVIS,not soluble
7,MSLTVNISYLTDMDGVLIKEGEIIPGADRFLQSLTDNNVEFMVLTNNSIFTPRDLSARLKTSGLEIPPERIWTSATATAHFLKSQVKEGTAYVVGESGLTTALHTAGWILTDANPEFVVLGETRTYSFEAITTAINLILGGARFICTNPDVTGPSPSGILPATGSVAALITAATGAEPYYIGKPNPVMMRSALNTIGAHSEHTVMIGDRMDTDVKSGLEAGLSTVLVRSGISDDAEIRRYPFRPTHVINSIADLADEGHHHHHH,soluble
8,MKTLTDTDHIHTLIAEGEHQQQDFKFEISDARKIAKTLSAFANTDGGRLLIGVKDNGRIAGVRSEEEKYMIEAAAQLYCIPEIDYTLQTYIVEGKQVLVATIEENPHKPVYAKDENGKPLAYLRIKDENILATPIHLRVWQQSGSPRGELIRYTEREQLLLDLLEQGTLLSLNRYCRQTGISRRAAEHLLAKFVRYDIVEPVFENHKFYFRMKNELEHHHHHH,soluble
9,MKVIFNADDFGLTQGVNQGIVKAHLDGVVKSTTLMVGMPAEQHAVQLAKQLPDLKIGLHLRFTAGRPLTGERNLTDEHGVFTAYRDFWQRRDYQPEAIYHEAIAQVEHFLKLGLTLSHLDSHHHAHTHPQLAPIIYEVAKKYHVPLRDIGMAGEEAFGCRYHFTDFFYDQRLGIDPLMKHLLELKERFDLVEVMCHPAFVDPLLEKCSGYAKQREEELHILTSAQLIQLLVAHDIEITDYSALISAPLHSCV,not soluble
10,MEKRGVIDTWIDKHRSIYTAATRHAFVVSIRDGSVDLSSFRTWLGQDYLFVRRFVPFVASVLIRACKDSGESSDMEVVLGGIASLNDEIEWFKREGSKWDVDFSTVVPQRANQEYGRFLEDLMSSEVKYPVIMTAFWAIEAVYQESFAHCLEDGNKTPVELTGACHRWGNDGFKQYCSSVKNIAERCLENASGEVLGEAEDVLVRVLELEVAFWEMSRGGQ,soluble
11,SKPSKPFNVDDVLKFTFTGEKHHHHHH,soluble
12,MSTKPPIERIMYIQMRTSLEMFRSDLVDLEALANAAKEALEQLPYIPKEPCGKGEDDPLSGPESALRTGRLCGLVCCTATAAENALSTCSKLIDWAYANEPDGVDDAVLADDDDDDDDDDEGGGNGANGGGGTNGGGDGSNGSGNGSPPDGGGVGAAPSPGRGELAETRPSRSGVALDLTPAPAPAGTPVA,not soluble
13,MAALSDKLADAYQNARPRYPIDWFTKLAARTGQHKSAWDVGTGNGQAAIGLAEYFEKVTATDINEAQLKRAVKHERISYHHTPTTMSEDQMVALVGGDNSVDLIVAAQAVHYFDLAPFYNVAKRVLRKEGGLIAVFVYNDIIISPEVDSIMKRLVDSTFPFRTPVMNLAFDGYKTLPFPFESIGMGSEGKPIMLDIPHKLSLKGFIGFLRSWQPAMKAKERGVELVTEDLISKFEDAWGDDDDVKDIFYKAHMIVGKLSASDIERHRKRFDTNCVVTTLKDHNNSAVIASVTAAAFAGVAAYCAYSARKNS,soluble
14,MGSDKIHHHHHHMERFPYEKLPESELKELKELGRLCRGDILKMTYIANSGHPGGSMSSIDLYLTVFKYAKLRPVDDPARDRIVISHGHTSPGVYAAMARLGFVDLDEVLAGFRHPASVFEGHVTRGVGIIDWTTGNLGQGLSAGLGFALASRFTGKDYHVFVLMSDAEQAKGQVAEARRVAKKYGVTNLTVIIDYNDAQISGRARDVMPVNIKENYLADGWRVIEIDGHDYEQIYLALKEAVEDELNPVAIIAKTVMGKGVSFMENEVKYHGKPLNREELEKALAELGIENDVDVYIEKRKQLPVEKHKKVYKTYPIKIDTGEPITYTSPTDNRSAFGKAILDLVKKNVNNPETTPIVAVDCDLKGSVKLDLLDKEFPERLLEVGVQEHNAAAMAGALSAEGVITFFADFGVFGISETYNQHRLNAINGTNLKVVVTHCGLNVGEDGKTHHGLDYVSGPMNWYGFKVIVPGDPNQTDRVVRYAAKEYGNFVIAMGRSKLPIILDENGKPFFGEGYTFEYGKIDVVRKGDDAVIITYGSTLCEAVNAADELKKEGVNVAVLNVSCPVDLDIETLKMVDGKPVLVVEDHNVFTGLGSFLGTTLLENGIIPKKYVRVGVPEFAVSGSYTMLYKLYGLDKDGIISRLREML,not soluble
15,EVQLVQSGAEVKKPGSSVKVSCKASGGTFSNYAINWVRQAPGQGLEWMGGIIPIFNIAHYAQRFQGRVSITADESTSTAYMELSSLRSEDTAVFYCASPYPNDYNDYAPEEGMSWYFDLWGRGTLVTVSPASTKGPSVFPLAPSSKSTSGGTAALGCLVKDYFPEPVTVSWNSGALTSGVHTFPAVLQSSGLYSLSSVVTVPSSSLGTQTYICNVNHKPSNTKVDKKVEPK,soluble
16,MAAQVLSGHEAAEAVYEEIRARLRSLSFTPSLRVIRLGEDPASVAYVRLKDKRARALGYRSQVEVYPEDLPEEALLERIAALNADEEVDGILVQLPLPPHIRTQRVLEAIHPLKDVDGFHPLNVGRLWSGGKGLFPCTPLGVVRLLKHYGVDLRGKEVVVVGRSNIVGKPLAGLLLREDATVTLAHSKTQDLPEVTRRAQVLVVAVGRPHLVRKEWVREGAIVVDVGVNRVEGRLLGDVHPEVAEVAFALTPVPGGVGPMTVAMLMGNTLEAALLRRHGASG,soluble
17,MAKTTGILDKSLSRGKTEINLSTFAVLFSEMVLYAQNRSETVTDIHDKIASYGKQVGLRMFDIITLREKGYKRETKLLGMLMFIKSTVWKNLFGKEADKLERSNDDHCTYLLIEKDPMVNTYISVPRDKGVLNCAAFAAGIVEAILESASFKCKVTAHWHNGTAYVIQFDESVIARENSLLDSNR,not soluble
